Common to all, as to experiment: IEDB peptide-MHC binding, purified MHC/competitive/radioactivity; ≥ and ≤ were set here for values at or beyond the usual limits of such assays
For assay [1], the target named is HLA-A*68:02.
For assay [2], the target named is HLA-A*02:03.
Assay [3] deals with HLA-A*02:02.
Assay [4] addresses HLA-A*02:01.
The target of assay [5] is HLA-A*02:06.
[6] abbreviates: source organism: Hepacivirus hominis.
[7] abbreviates: source organism: Mammarenavirus choriomeningitidis.
Where [8] appears, read: source organism: Mammarenavirus machupoense.
Setting [9] is: source organism: Vaccinia virus WR.

For ALLFLMSFTI, the IC50 came out at 1770 nM in assay [1] (source organism: SARS-CoV1); 199 nM in assay [2] (source organism: SARS-CoV1); 0.37 nM in assay [3] (source organism: SARS-CoV1); 1.6 nM in assay [4] (source organism: SARS-CoV1); 14 nM in assay [5] (source organism: SARS-CoV1).
ALLSCISVPV: the half-inhibitory concentration (IC50) in assay [1] (setting [6]) stood at 1270 nM; in assay [2] (setting [6]), 43 nM; in assay [3] (setting [6]), 41 nM; in assay [4] (setting [6]), 28 nM; in assay [5] (setting [6]), 76 nM.
Consider ALMDLLMFS, for which the 50% inhibitory concentration (IC50) in assay [1] (setting [7]) was 2990 nM; in assay [2] (setting [7]), 104 nM; in assay [3] (setting [7]) it was 0.94 nM; in assay [4] (setting [7]), 2.4 nM; in assay [5] (setting [7]), 14 nM.
Consider ALMIAAQVVV, for which the IC50 turned out to be 1420 nM in assay [1] (setting [6]); 71 nM in assay [2] (setting [6]); 50 nM in assay [3] (setting [6]); 129 nM in assay [4] (setting [6]); 614 nM in assay [5] (setting [6]).
ALNIALVAV: the IC50 was 3340 nM in assay [1] (setting [8]); 4.5 nM in assay [2] (setting [8]); 15 nM in assay [3] (setting [8]); 79 nM in assay [4] (setting [8]); 371 nM in assay [5] (setting [8]).
Turning to ALVCYIVMPV, the IC50 in assay [1] (source organism: SARS-CoV1) was 88 nM; in assay [2] (source organism: SARS-CoV1), 4.4 nM; in assay [3] (source organism: SARS-CoV1), 1.2 nM; in assay [4] (source organism: SARS-CoV1) it was 5.6 nM; in assay [5] (source organism: SARS-CoV1) it was 2.9 nM.
ALVSDCAST: the concentration for half-maximal inhibition (IC50) in assay [1] (setting [9]) was determined as 771 nM; in assay [2] (setting [9]) it was 31 nM; in assay [3] (setting [9]) it was 701 nM; in assay [4] (setting [9]) it was 115 nM; in assay [5] (setting [9]) it was 311 nM.
For ALVSDCASTI, in that order: 530 nM, 52 nM, 94 nM, 72 nM and 240 nM.
Turning to ALYKGFQFI, the concentration for half-maximal inhibition (IC50) worked out at 4450 nM in assay [1] (source organism: SARS-CoV1); 3.3 nM in assay [2] (source organism: SARS-CoV1); 0.53 nM in assay [3] (source organism: SARS-CoV1); 5.2 nM in assay [4] (source organism: SARS-CoV1); 2 nM in assay [5] (source organism: SARS-CoV1).
Take ALYSPPLISI: the IC50 was 323 nM in assay [1] (setting [9]); 150 nM in assay [2] (setting [9]); 1.4 nM in assay [3] (setting [9]); 1130 nM in assay [4] (setting [9]); 162 nM in assay [5] (setting [9]).
For AMLKSKNINI, in that order: 4740 nM, 223 nM, 1650 nM, 175 nM and 200 nM.
With AMPGVLSYV, the IC50 in assay [1] (setting [8]) is 834 nM; in assay [2] (setting [8]) it was 7.3 nM; in assay [3] (setting [8]), 4.2 nM; in assay [4] (setting [8]), 8.4 nM; in assay [5] (setting [8]) it was 22 nM.
With ATFRDMLLNV, the IC50 in assay [1] (setting [9]) was determined as 511 nM; in assay [2] (setting [9]) it was 0.4 nM; in assay [3] (setting [9]) it was 7.1 nM; in assay [4] (setting [9]), 8.3 nM; in assay [5] (setting [9]), 3 nM.
For ATICLKNEGV, in that order: 87 nM, 71 nM, 436 nM, 239 nM and 42 nM.
For ATLNTLITLI, in that order: 1050 nM, 28 nM, 32 nM, 543 nM and 198 nM.
The matching figures for AVANCVRNL: 1350 nM, 114 nM, 66 nM, 1200 nM and 1380 nM.
Consider AVIPFDDIV, for which the IC50 was 903 nM in assay [1] (setting [9]); 241 nM in assay [2] (setting [9]); 313 nM in assay [3] (setting [9]); 915 nM in assay [4] (setting [9]); 42 nM in assay [5] (setting [9]).
The matching figures for AVITETIPI: 60 nM, 43 nM, 324 nM, 467 nM and 6.5 nM.
The matching figures for AVLSEYETMV: 1770 nM, 1.5 nM, 0.76 nM, 9.7 nM and 24 nM.
As to AVYNFATCGI, the IC50 in assay [1] (setting [7]) came out at 13 nM; in assay [2] (setting [7]), 7.3 nM; in assay [3] (setting [7]), 25 nM; in assay [4] (setting [7]), 137 nM; in assay [5] (setting [7]), 25 nM.
In the case of CIVAAVIIMA, the IC50 in assay [1] (setting [9]) was 1.3 nM; in assay [2] (setting [9]), 619 nM; in assay [3] (setting [9]), 1130 nM; in assay [4] (setting [9]) it was 1900 nM; in assay [5] (setting [9]), 733 nM.
The matching figures for CIVQSVLRDI: 3480 nM, 158 nM, 218 nM, 1180 nM and 849 nM.
As for CLDAGINYV, the IC50 in assay [1] (source organism: SARS-CoV1) came out at 79 nM; in assay [2] (source organism: SARS-CoV1), 6.4 nM; in assay [3] (source organism: SARS-CoV1), 0.57 nM; in assay [4] (source organism: SARS-CoV1), 0.91 nM; in assay [5] (source organism: SARS-CoV1), 1.6 nM.

The values are drawn from the Immune Epitope Database (IEDB).
